Experimental data taken from IntAct's records for PubMed 15377662.

B1: Ras-related protein Rab-5A (Homo sapiens), P20339 (parent)
chain: MASRGATRPNGPNTGNKICQFKLVLLGESAVGKSSLVLRFVKGQFHEFQESTIGAAFLTQTVCLDDTTVKFEIWDTAGQERYHSLAPMYYRGAQAAIVVYDITNEESFARAKNWVKELQRQASPNIVIALSGNKADLANKRAVDFQEAQSYADDNSLLFMETSAKTSMNVNEIFMAIAKKLPKNEPQNPGANSARGRGVDLTEPTQPTRNQCCSN

Variants of: B1
Details: with p85a_bovin PIK3R1, P23727
Chain of p85a_bovin PIK3R1, P23727 (P23727 whole entry): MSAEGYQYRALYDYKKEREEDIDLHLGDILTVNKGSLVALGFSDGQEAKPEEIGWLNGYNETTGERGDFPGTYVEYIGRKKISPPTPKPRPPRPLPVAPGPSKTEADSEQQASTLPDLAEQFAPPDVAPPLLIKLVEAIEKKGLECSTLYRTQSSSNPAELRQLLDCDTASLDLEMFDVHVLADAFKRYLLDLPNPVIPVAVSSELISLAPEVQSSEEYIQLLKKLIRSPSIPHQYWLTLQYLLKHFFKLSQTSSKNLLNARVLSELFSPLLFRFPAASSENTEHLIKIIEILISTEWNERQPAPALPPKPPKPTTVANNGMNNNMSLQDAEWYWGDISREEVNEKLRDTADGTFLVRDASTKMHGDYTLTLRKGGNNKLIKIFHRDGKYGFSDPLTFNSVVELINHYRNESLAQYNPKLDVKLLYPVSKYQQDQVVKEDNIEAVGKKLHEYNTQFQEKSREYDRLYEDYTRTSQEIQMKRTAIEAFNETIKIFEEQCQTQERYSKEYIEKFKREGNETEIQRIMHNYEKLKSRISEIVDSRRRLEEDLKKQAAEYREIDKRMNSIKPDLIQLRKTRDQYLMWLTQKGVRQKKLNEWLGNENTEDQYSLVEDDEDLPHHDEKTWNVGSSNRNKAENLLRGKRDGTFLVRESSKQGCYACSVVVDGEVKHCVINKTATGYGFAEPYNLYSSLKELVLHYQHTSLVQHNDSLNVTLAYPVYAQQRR

Question: MASRGATRPNGPNTGNKICQFKLVLLGESAVGKNSLVLRFVKGQFHEFQESTIGAAFLTQTVCLDDTTVKFEIWDTAGQERYHSLAPMYYRGAQAAIVVYDITNEESFARAKNWVKELQRQASPNIVIALSGNKADLANKRAVDFQEAQSYADDNSLLFMETSAKTSMNVNEIFMAIAKKLPKNEPQNPGANSARGRGVDLTEPTQPTRNQCCSN [S34N] was tested. Which “effect of a mutation on the interaction” value did it give?
Answer: disrupting interaction

Variants of: B1
Details: with p85a_bovin PIK3R1, P23727
Remark: another data set of the same source

Question: For MASRGATRPNGPNTGNKICQFKLVLLGESAVGKSSLVLRFVKGQFHEFQESTIGAAFLTQTVCLDDTTVKFEIWDTAGLERYHSLAPMYYRGAQAAIVVYDITNEESFARAKNWVKELQRQASPNIVIALSGNKADLANKRAVDFQEAQSYADDNSLLFMETSAKTSMNVNEIFMAIAKKLPKNEPQNPGANSARGRGVDLTEPTQPTRNQCCSN [Q79L], which “effect of a mutation on the interaction” value is on record?
Answer: decreasing interaction
